# Laboratory results as given in US20230083243A1 (VEGA THERAPEUTICS, published 2023).
# T1: human Protein S (human, UniProt P07225 42-676)
# T1 construct: also called ProS; ProS1
# T1 sequence: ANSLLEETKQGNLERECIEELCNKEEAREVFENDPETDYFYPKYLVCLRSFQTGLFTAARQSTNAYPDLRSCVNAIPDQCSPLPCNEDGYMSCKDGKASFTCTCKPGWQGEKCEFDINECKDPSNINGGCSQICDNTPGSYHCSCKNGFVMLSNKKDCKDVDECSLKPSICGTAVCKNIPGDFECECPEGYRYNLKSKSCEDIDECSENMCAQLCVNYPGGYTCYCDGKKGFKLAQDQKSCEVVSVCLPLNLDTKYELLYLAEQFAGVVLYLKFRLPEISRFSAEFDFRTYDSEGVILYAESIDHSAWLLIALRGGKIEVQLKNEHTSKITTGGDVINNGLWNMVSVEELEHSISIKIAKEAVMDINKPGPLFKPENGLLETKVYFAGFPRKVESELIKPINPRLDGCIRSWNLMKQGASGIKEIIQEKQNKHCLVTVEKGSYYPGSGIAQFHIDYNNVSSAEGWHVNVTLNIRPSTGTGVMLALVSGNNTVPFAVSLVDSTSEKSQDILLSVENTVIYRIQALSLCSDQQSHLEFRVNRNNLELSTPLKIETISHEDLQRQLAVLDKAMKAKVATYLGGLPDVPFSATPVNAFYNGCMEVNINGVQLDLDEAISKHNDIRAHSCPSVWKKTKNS
# T2: recombinant heavy chain Protein S (human, UniProt P07225 42-296)
# T2 construct: Fragment of Protein S spanning amino acids 42-296, expressed and purified from HEK293 cells; also called Protein S heavy chain; heavy chain of Protein S
# T2 sequence: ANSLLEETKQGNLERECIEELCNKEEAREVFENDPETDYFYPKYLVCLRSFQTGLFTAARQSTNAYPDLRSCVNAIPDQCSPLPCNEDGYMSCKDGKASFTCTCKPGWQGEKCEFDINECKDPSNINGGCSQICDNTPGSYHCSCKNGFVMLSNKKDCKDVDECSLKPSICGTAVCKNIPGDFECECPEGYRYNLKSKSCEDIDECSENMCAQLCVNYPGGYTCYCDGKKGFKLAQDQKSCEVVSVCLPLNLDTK
# T3: Protein S-C4BP complex (human, UniProt P04003 49-597; P20851 18-252)
# T3 construct: C4BP preparation from Complement Technologies that contains Protein S precomplexed to human C4BP; also called ProS-C4BP Complex; C4BP-Protein S complex
# T3 sequence 1: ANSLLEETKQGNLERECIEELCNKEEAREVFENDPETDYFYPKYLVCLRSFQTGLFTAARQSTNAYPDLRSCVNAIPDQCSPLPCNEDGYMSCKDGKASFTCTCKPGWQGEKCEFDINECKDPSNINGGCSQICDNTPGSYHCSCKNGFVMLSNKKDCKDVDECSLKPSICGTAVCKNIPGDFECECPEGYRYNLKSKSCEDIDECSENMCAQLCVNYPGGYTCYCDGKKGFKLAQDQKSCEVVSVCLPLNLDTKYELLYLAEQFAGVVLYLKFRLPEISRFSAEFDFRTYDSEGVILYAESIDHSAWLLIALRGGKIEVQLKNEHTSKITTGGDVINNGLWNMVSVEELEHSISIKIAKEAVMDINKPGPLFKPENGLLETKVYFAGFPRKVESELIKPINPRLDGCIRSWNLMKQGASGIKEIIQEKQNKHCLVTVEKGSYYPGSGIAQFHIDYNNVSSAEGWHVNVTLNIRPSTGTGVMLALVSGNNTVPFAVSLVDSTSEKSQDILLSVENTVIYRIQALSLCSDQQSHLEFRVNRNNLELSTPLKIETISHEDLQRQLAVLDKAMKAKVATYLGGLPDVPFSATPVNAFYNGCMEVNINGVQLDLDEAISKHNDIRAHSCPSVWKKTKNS
# T3 sequence 2: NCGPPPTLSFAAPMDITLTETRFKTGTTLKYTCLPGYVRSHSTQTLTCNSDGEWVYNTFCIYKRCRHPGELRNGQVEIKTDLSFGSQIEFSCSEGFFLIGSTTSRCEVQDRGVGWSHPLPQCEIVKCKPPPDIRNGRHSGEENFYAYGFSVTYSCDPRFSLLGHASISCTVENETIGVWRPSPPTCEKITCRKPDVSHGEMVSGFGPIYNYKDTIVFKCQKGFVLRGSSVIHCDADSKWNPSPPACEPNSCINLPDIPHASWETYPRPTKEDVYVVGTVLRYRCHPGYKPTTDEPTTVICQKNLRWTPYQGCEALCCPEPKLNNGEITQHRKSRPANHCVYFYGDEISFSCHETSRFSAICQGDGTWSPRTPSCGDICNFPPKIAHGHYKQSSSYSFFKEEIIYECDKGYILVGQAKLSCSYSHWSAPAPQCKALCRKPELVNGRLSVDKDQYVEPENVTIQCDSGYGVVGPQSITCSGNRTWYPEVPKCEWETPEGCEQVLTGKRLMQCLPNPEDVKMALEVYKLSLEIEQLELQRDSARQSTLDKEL
# T3 sequence 3: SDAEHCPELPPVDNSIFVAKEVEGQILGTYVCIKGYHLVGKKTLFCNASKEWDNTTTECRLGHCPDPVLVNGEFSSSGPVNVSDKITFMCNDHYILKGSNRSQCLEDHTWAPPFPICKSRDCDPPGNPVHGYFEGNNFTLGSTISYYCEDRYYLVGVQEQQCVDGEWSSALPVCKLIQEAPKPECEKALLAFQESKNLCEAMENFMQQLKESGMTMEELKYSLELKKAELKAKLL
# Tests used:
# human Protein S [1] = molecular target: T1, human Protein S; test: ELISA; plate coated with human Protein S; 1 µg/ml antibody; 1 mM EDTA
# Experimental: (§1) Calcium dependence of binding was determined using an ELISA based method. Briefly, high binding ELISA plates were coated with human Protein S. Then, buffer containing 1 μg/ml of antibody was applied to the well with either buffer containing 1 mM EDTA or 1 mM calcium chloride.
# human Protein S [2] = molecular target: T1, human Protein S; test: ELISA; plate coated with human Protein S; 1 µg/ml antibody; 1 mM calcium chloride
# Experimental: as §1
# [3] = molecular target: T2, recombinant heavy chain Protein S; test: ELISA; plate coated with recombinant Protein S heavy chain; 1 mM CaCl2
# Experimental: (§2) Binding to the heavy chain of Protein S was determined using an ELISA based method. Briefly, high binding ELISA plates were coated with recombinant heavy chain Protein S expressed and purified from HEK293 cells. The “heavy chain” of Protein S represents a fragment of Protein S spanning amino acids 42-296. The coated plate was blocked with 1% casein solution. Then, buffer containing […] of antibody was applied to the well with buffer containing 1 mM calcium chloride.
# [4] = molecular target: T2, recombinant heavy chain Protein S; test: ELISA on recombinant Protein S heavy chain
# Experimental: as §2
# human Protein S [5] = molecular target: T1, human Protein S; test: cell-based or functional assay
# Protein S-C4BP complex = molecular target: T3, Protein S-C4BP complex; test: BLI Octet; antibody on anti-human Fc probe
# Experimental: The Octet assay was used to determine the capability of the Protein S antibodies provided herein to bind to Protein S either alone, or when complexed to C4BP.
# Using the Octet System (Sartorius), the binding of each antibody to both Protein S and Protein S in complex with C4BP was determined. It had previously been determined that the C4BP preparation from Complement Technologies contains Protein S precomplexed to human C4BP. Therefore, this preparation represented the Protein S-C4BP complex and plasma purified Protein S from Haematologic Technologies was used as the source of free Protein S. The human Fc antibodies were immobilized onto anti-human Fc capture probes by placing the probes into 10 μg/ml antibody solution in 10 mg/ml bovine serum albumin, 20 mM Tris pH 7.0, 150 mM NaCl, and 4 mM calcium chloride. Then the bound antibodies were placed into solutions containing either 75 μg/ml Protein S or 100 μg/ml C4BP (C4BP-Protein S complex).
# human Protein S [6] = molecular target: T1, human Protein S; test: BLI Octet; antibody on anti-human Fc probe; Protein S 7.81-500 nM; 4 mM CaCl2
# Experimental: (§3) Binding characteristics of the Protein S antibodies were also further characterized using Octet. Using the Octet System (Sartorius), the binding of each antibody to both human and cynomolgus monkey (“cyno” in Table 10) Protein S was determined. The human Fc antibodies were immobilized onto anti-human Fc capture probes by placing the probes into 10 μg/ml antibody solution in 10 mg/ml bovine serum albumin, 20 mM Tris pH 7.0, 150 mM NaCl, and 4 mM calcium chloride. […] Next, the probes were placed into buffer and the dissociation rates were measured.
# [7] = molecular target: T4, cynomolgus monkey Protein S (cynomolgus monkey); test: as above
# T4 construct: also called cyno Protein S
# Experimental: as §3
Binder,Binding to Protein S in EDTA (OD) (human Protein S [1]),Binding to Protein S in CaCl2 (OD) (human Protein S [2]),Binding to heavy chain (OD) [3] [OD],binding result [4],IC50 APC (human Protein S [5]) [nM],Kd (human Protein S [6]) [nM],koff (human Protein S [6]) [s⁻¹],kon (human Protein S [6]) [M⁻¹ s⁻¹],Kd [7] [nM],koff [7] [s⁻¹],kon [7] [M⁻¹ s⁻¹],IC50 TFPI (human Protein S [5]) [nM],binding result (Protein S-C4BP complex)
"Antibody 40 (antibody, V domains shown, Human variable region with rat Fc) VH: EVQLVESGGGLVQPGGSLRLSCAASGFTFSSYSMNWVRQAPGKGLEWVAYISSSTRTIFYADSVKGRFTISRDNAKNSLYLQMNSLRDEDTAFYYCARERSAFDYWGQGTLVTVSS VL: SYVLTQPPSVSVAPGQTARITCGGDNIGGKSVHWYQQKPGQAPVMVVYDDSDRPSGIPERFAGSNSGNTATLAISRVEAGDEADYYCQVWEITSDHPAFGGGTRLTVL",0.11,0.51,0.11,no binding,11.9,–,–,–,–,–,–,–,–
"Antibody 35 (antibody, V domains shown, Human variable region with rat Fc) VH: QLQLQESGPGLVKPSETLSLTCTVSGGSITNSNYYWGWIRQPPGKGLEWIGSVYYSGTTYYNPSLKSRVTISVDPSKNQFSLKLSSVTAADTAVYYCVRESESYYYYGSDVWGQGTTVTVSS VL: DIQMTQSPSSLSASVGDRVTITCRASQGINNYLAWFQQKPGKAPKSLIYAASSLQSGVPSKFSGSGSGTDFTLTISSLQPEDFATYYCQQYNSYPRTFGQGTKVEIK",0.11,0.96,0.08,no binding,371,–,–,–,–,–,–,–,–
"Antibody 36 (antibody, V domains shown, Human variable region with rat Fc) VH: EVQLVESGGGLVKPGGSLRLSCAASGFTFSSYNMNWVRQAPGRGLDWVSSISSSSSYIYYADSVKGRFTISRDNAKNSLYLQMNTLRAEDTAVYYCARDEEWELLTGFDYWGQGTLVTVSS VL: DIQMTQSPSSLSASVGDRVTITCRASQGINNYLAWFQQKPGKAPKSLIYAASNLQSGVPLKFSGSGSGTDFTLTISSLQPEDFATYYCQQYNSYPITFGQGTRLEIK",0.03,0.6,0.08,no binding,15.3,–,–,–,–,–,–,6.05,–
"Antibody 38 (antibody, V domains shown, Human variable region with rat Fc) VH: EVQLVESGGGLVKPGGSLRLSCAASGISFSNAWMSWVRQAPGKGLEWVGRIKANPDGGTTDYAAPVKGRFTISRDDSKNTLYLQMNSLKTEDTAVYYCTTELDILLWFTSFDYWGQGTLVTVSS VL: not shown",0.09,1.38,0.1,no binding,84,–,–,–,–,–,–,–,–

# The next lines start with results.
Binding to Protein S in EDTA (OD) (human Protein S [1]),Binding to Protein S in CaCl2 (OD) (human Protein S [2]),Binding to heavy chain (OD) [3] [OD],binding result [4],IC50 APC (human Protein S [5]) [nM],Kd (human Protein S [6]) [nM],koff (human Protein S [6]) [s⁻¹],kon (human Protein S [6]) [M⁻¹ s⁻¹],Kd [7] [nM],koff [7] [s⁻¹],kon [7] [M⁻¹ s⁻¹],IC50 TFPI (human Protein S [5]) [nM],Binder,binding result (Protein S-C4BP complex)
0.53,0.67,0.11,no binding,215,–,–,–,–,–,–,–,"Antibody 42 (antibody, V domains shown, Human variable region with rat Fc) VH: QVQLVQSGSEVKKPGASVKVSCKASGYTFTNYYIHWVRQAPGQGLEWMGIITPSGGTTSYAQKFQGRVTMTRDTSTNTVYMGLSSLRSEDTAMYYCARAGVQLDRRGWFDPWGQGTLVTVSS VL: SYELTQPPSVSVSPGQTASITCSGDKLGDKYVFWYQQKPGQSPVLVIYQDSKRPSGIPERFSGSNSGNTATLTISGTQTMDEADYYCQAWDSSTVGFGGGTKLAVL",–
–,–,–,–,–,11.5,0.000279,24200,20.9,0.00073,35000,–,"Antibody 30 (antibody, V domains shown, Same variable regions as Antibody 36) VH: EVQLVESGGGLVKPGGSLRLSCAASGFTFSSYNMNWVRQAPGRGLDWVSSISSSSSYIYYADSVKGRFTISRDNAKNSLYLQMNTLRAEDTAVYYCARDEEWELLTGFDYWGQGTLVTVSS VL: DIQMTQSPSSLSASVGDRVTITCRASQGINNYLAWFQQKPGKAPKSLIYAASNLQSGVPLKFSGSGSGTDFTLTISSLQPEDFATYYCQQYNSYPITFGQGTRLEIK",no binding (tested: 100 µg/ml C4BP (C4BP-Protein S complex))
–,–,–,–,–,21.1,0.00173,81900,20,0.00177,88200,–,"Antibody 29 (antibody, V domains shown, Same variable regions as Antibody 35) VH: QLQLQESGPGLVKPSETLSLTCTVSGGSITNSNYYWGWIRQPPGKGLEWIGSVYYSGTTYYNPSLKSRVTISVDPSKNQFSLKLSSVTAADTAVYYCVRESESYYYYGSDVWGQGTTVTVSS VL: DIQMTQSPSSLSASVGDRVTITCRASQGINNYLAWFQQKPGKAPKSLIYAASSLQSGVPSKFSGSGSGTDFTLTISSLQPEDFATYYCQQYNSYPRTFGQGTKVEIK",no binding (tested: 100 µg/ml C4BP (C4BP-Protein S complex))
–,–,–,–,–,0.382,8.32e-05,218000,0.672,0.000119,177000,–,"Antibody 37 (antibody, V domains shown, Same variable regions as Antibody 38) VH: EVQLVESGGGLVKPGGSLRLSCAASGISFSNAWMSWVRQAPGKGLEWVGRIKANPDGGTTDYAAPVKGRFTISRDDSKNTLYLQMNSLKTEDTAVYYCTTELDILLWFTSFDYWGQGTLVTVSS VL: not shown",no binding (tested: 100 µg/ml C4BP (C4BP-Protein S complex))
